Measured values: patent publication CN113501874A (SANGON BIOTECH SHANGHAI CO LTD, dated 2021)

Biological target: T1, 重组人CD47带his标签的蛋白 (human, UniProt Q08722 19-139, limits assumed)
T1 construct: Immunogen and ELISA coating antigen; also called 重组人CD47 his标签蛋白; 检测抗原; not shown: his tag
Experiment: indirect ELISA; CD47-his coated at 3, 1.5, 0.75 and 0.375 mg/L; K=(N-1)/(N*AB'-AB), mean of 6 K values

T1 sequence (Q08722 19-139 limits assumed): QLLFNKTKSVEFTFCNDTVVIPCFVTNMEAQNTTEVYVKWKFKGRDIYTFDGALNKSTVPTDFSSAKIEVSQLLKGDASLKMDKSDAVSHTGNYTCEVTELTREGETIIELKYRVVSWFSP

B1: 单克隆细胞株7G7分泌的鼠抗人CD47单克隆抗体 (antibody, V domains shown)
VH: VKLQQSGAELARPGASVKLSCTASGYTFTDYYINWVRQRTGQGLEWIGDINPGRGKTYYIEKFKGKATLTADKSSSTAYMQLSSLTSEDSAVYFCARGGLRRFDYWGQGTTVTVSS
VL: DIELTQSPAIMSVSPGEKVTMTCRASSSVSSSYLHWYQQKSGVSPKLWIYSTSTLASGVPARFSGSGSGTSYSLTISSVEAADAATYYCQQYSGYPYTFGGGTKVEIKR
Ka: 1.39e+08 M⁻¹
